Article PMC3099546

Key:
[1] = system: CCCCC/C=C\C\C=C/C=C/C=C/[C@@H](SC[C@H](NC(=O)CC[C@H](N)C(=O)O)C(=O)NCC(=O)O)[C@@H](O)CCCC(=O)O; assay: purified protein; settings: substrate binding site
[2] = system: CSC[C@H](NC(=O)CC[C@H](N)C(=O)O)C(=O)NCC(=O)O; assay: glutamate release assay, Km of hydrolysis; assay type: biochemical, Homo sapiens
[3] = system: N[C@@H](CCC(=O)N[C@@H](CSCc1ccc([N+](=O)[O-])cc1)C(=O)NCC(=O)O)C(=O)O; assay: glutamate release assay, Km of hydrolysis; assay type: biochemical, Homo sapiens

## gamma-glutamyl transpeptidase (GGT1) (Homo sapiens)
[1]
  Km: 10.8 ± 0.1 µM
  kcat: 88.3 s⁻¹
  kcat/Km: 8.17e+06 M⁻¹ s⁻¹
[2]
  Km: 9.90 ± 0.07 µM
  kcat: 95 ± 3.33 s⁻¹
  kcat/Km: 9.5e+06 ± 333000 M⁻¹ s⁻¹
[3]
  Km: 13.10 ± 0.05 µM
  kcat: 103 ± 6.67 s⁻¹
  kcat/Km: 7.83e+06 ± 500000 M⁻¹ s⁻¹
